Test results reported in patent US20240101668A1 (WUGEN, published 2024).

B1: Polypeptide No. 35 (scFv, V domains shown)
VH: QVQLVQSGAEVKKPGASVKVSCKASGYTFTDYYMHWVRQAPGQGLEWMGIINPSGGSTRYAQKFQGRVTMTRDTSTSTVYMELSSLRSEDTAVYYCARVDGRRWLRSDYWGQGTLVTVSS
VL: DIQMTQSPSSLSASVGDRVTITCRASQGIRNDLAWYQQKPGKAPKLLIYAASTLQNGVPSRFSGSGSGTDFTLTISSLQPEDFATYYCQQSYSTPWTFGQGTKVEIKR
notes: scFv
B2: Polypeptide No. 36 (scFv, V domains shown)
VH: QVQLVQSGAEVKKPGASVKVSCKASGGTFSSYAISWVRQAPGQGLEWLGIISPSGRSAGYGRKFQGRVTMTRDTSTSTVYMELSSLRSEDTAVYYCARTDYGGHKWYFDLWGRGTLVTVSS
VL: DIQMTQSPSSLSASVGDRVTITCQASQGINNYLNWYQQKPGKAPKLLIYAASTLQRGVPSRFSGSGSGTDFTLTISSLQPEDFATYYCQQSYQTPLTFGGGTKVEIKR
notes: scFv
B3: Polypeptide No. 42 (scFv, V domains shown)
VH: QVQLVQSGAEVKKPGASVKVSCKASGYTFTDYFMHWVRQAPGQGLEWMGWINPNSGNTGYAQKFQGRVTMTRDTSTSTVYMELSSLRSEDTAVYYCARLNDYGDYGGPATLDYWGQGTLVTVSS
VL: DIQMTQSPSSLSASVGDRVTITCRASQGISNNLNWYQQKPGKAPKLLIYAASSLQSGVPSRFSGSGSGTDFTLTISSLQPEDFATYYCQQSYSTPPTFGQGTKLEIKR
notes: scFv
B4: Polypeptide No. 40 (scFv, V domains shown)
VH: QVQLVQSGAEVKKPGASVKVSCKASGYTFTDYHMHWVRQAPGQGLEWMGWMSPNSGNTGYAQNFQGRVTMTRDTSTSTVYMELSSLRSEDTAVYYCARADYYGSDYVKFDYWGQGTLVTVSS
VL: DIQMTQSPSSLSASVGDRVTITCRVSQGISSYLNWYQQKPGKAPKLLIYEASTLESGVPSRFSGSGSGTDFTLTISSLQPEDFATYYCQQGYSTPPTFGQGTKVEIKR
notes: scFv
B5: Polypeptide No. 41 (scFv, V domains shown)
VH: QVQLVQSGAEVKKPGASVKVSCKASGYTFPNYGISWVRQAPGQGLEWMGWINPNSGGTKYAQRFQGRVTMTRDTSTSTVYMELSSLRSEDTAVYYCARDRDILTGYYHFDYWGQGTLVTVSS
VL: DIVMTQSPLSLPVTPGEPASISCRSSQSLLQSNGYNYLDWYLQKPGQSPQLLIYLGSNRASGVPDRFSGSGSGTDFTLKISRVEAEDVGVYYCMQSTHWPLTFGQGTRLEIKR
notes: scFv
B6: Polypeptide No. 39 (scFv, V domains shown)
VH: EVQLLESGGGLVQPGGSLRLSCAASGFTFRNYGMGWVRQAPGKGLEWVSAISGSGGSTYYADSVKGRFTISRDNSKNTLYLQMNSLRAEDTAVYYCARVKFYGMDVWGQGTTVTVSS
VL: DIQMTQSPSSLSASVGDRVTITCRASQGISNDLAWYQQKPGKAPKLLIYGASNLETGVPSRFSGSGSGTDFTLTISSLQPEDFATYYCQQANSFPFTFGPGTKVDIKR
notes: scFv

How the values were obtained:
[1] = molecular target: T1, huCD33-R69 stably expressed on Jurkat cells (human, UniProt P20138 18-364); experiment: FACS on cells;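 also: fixed Jurkat cells bearing either CD33 variant, barcoded by dye, exposed to myc-tagged scFv periplasmic extracts, detected with anti-myc PE antibody and read by flow cytometry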
T1 construct: whole, on cells; >200,000 receptors per cell; also called CD33 WT; CD33^ARG69
T1 sequence (P20138 18-364): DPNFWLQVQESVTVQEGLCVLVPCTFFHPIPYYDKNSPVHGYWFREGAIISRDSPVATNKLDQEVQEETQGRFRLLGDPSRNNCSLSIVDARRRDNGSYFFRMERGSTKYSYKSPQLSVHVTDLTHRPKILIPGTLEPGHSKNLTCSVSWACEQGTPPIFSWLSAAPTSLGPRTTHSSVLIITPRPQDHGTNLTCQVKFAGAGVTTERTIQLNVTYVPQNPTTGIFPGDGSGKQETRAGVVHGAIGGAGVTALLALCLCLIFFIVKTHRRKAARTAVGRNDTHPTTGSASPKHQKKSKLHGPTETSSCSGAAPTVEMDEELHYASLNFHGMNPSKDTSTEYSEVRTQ
Description: (§1) Jurkat cells were engineered to stably express either the huCD33-R69 or huCD33-G69 variant at >200,000 receptors per cell. Parental, huCD33-R69, and huCD33-G69 Jurkat cell lines were stained with differing levels of CellTrace Violet Cell Proliferation Kit (ThermoFisher, cat. #C34557) to barcode each cell line. Barcoded Jurkat cell lines were fixed with paraformaldehyde and incubated with myc-labeled scFv periplasmic extracts and a secondary anti-myc PE-conjugated monoclonal antibody. Appropriate positive and negative controls were used. Stained cells were analyzed by flow cytometry (CytoFLEX, Beckman Coulter, Inc.) and binding was assessed by change in PE mean fluorescence intensity (MFI) of the barcoded cell populations.

[2] = molecular target: T2, huCD33-G69 stably expressed on Jurkat cells (human, UniProt P20138 18-364); experiment: FACS on cells;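 also: fixed Jurkat cells bearing either CD33 variant, barcoded by dye, exposed to myc-tagged scFv periplasmic extracts, detected with anti-myc PE antibody and read by flow cytometry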
T2 construct: whole, on cells; >200,000 receptors per cell; also called CD33 Mutant; CD33 R69G
T2 sequence (P20138 18-364 R69G): as the sequence (P20138 18-364) above, with R52G counted along it
Description: as §1

[3] = molecular target: T3, huCD33-G69-Fc recombinant protein (human, UniProt P20138 18-259); experiment: BLI
T3 construct: extracellular domain; also called CD33 R69G
T3 sequence (P20138 18-259 R69G): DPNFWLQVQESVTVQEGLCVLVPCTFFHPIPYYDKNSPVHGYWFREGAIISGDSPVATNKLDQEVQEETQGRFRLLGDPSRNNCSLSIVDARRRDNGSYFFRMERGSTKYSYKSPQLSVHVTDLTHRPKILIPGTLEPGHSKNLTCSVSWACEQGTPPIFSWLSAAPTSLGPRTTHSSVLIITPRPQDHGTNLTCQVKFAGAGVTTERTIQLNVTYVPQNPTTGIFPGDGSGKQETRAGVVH
Description: (§2) Discovered scFvs were analyzed for binding to huCD33-R69-His or huCD33-G69-Fc recombinant proteins (for anti-CD33 scFvs; for CLL-1 scFvs, huCLL1-K244-Avi-Tev-His or huCLL1-Q244-Avi-Tev-His were used; for FLT3, huFLT3-T227-His or huFLT3-M227-Fc were used) using BLI on a ForteBio Octet HTX instrument. Streptavidin-coated biosensors were loaded with biotinylated anti-V5 tag monoclonal antibody for 5 min and were then quenched and blocked with 20 μM amine-PEG2-Biotin for 5 min. scFvs were captured on biosensors from scFv clone periplasmic extracts. huCD33 (or huCLL-1, or huFLT3) proteins were then associated with the captured scFvs for 2 minutes, followed by dissociation with buffer (1×HBST [10 mM HEPES pH 7.4, 150 mM NaCl, 0.05% Tween-20], 1 g/L BSA) for 5 minutes. […] Data was fitted with 1:1 Langmuir equation and off-rate values were reported.

[4] = molecular target: T4, huCD33-R69-His recombinant protein (human, UniProt P20138 18-259); experiment: BLI
T4 construct: extracellular domain
T4 sequence (P20138 18-259): as the sequence (P20138 18-259 R69G) above, with G52R counted along it
Description: as §2
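For result in this document: scFvs from periplasmic extracts captured on biosensors via anti-V5 antibody, exposed to recombinant huCD33 variants for 2 min, 5 min dissociation, scored as binding, no binding or ambiguous.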

Row | Binder | geometric mean MFI fold change over Jurkat parental [1] [fold] | geometric mean MFI fold change over Jurkat parental [2] [fold] | binding result [3] | binding result [4]
1 | B1 | < 2 | 2 to 10 | binds | no binding
2 | B2 | < 2 | 2 to 10 | binds | no binding
3 | B3 | < 2 | 10 to 30 | binds | no binding
4 | B4 | < 2 | 10 to 30 | binds | no binding
5 | B5 | < 2 | 2 to 10 | binds | no binding
6 | B6 | < 2 | 10 to 30 | binds | no binding
